From article PMC12548415 (2025)

How the values were obtained:
[1] = molecular target: wild-type raccoon dog parvovirus strain RDPV/CL/2016, capsid of VP2 (raccoon dog parvovirus, strain …); assay: BLI
[2] = molecular target: wild-type raccoon dog parvovirus strain RDPV/FLD/2010, capsid of VP2 (raccoon dog parvovirus, strain …); assay: BLI

B1: raccoon dog transferrin receptor ectodomain (recombinant RDTfR, from residue 121, C-terminal 6x His) (receptor)
chain: EEYFPETPSRLFWTDLKTMLSERLSNTDFTNTMRWLNENSYVPREAGSQKDESLALLIENRFREFQLSKSWRDEHFVKIQVKSSNAQNTVTIVGTESGLVYLVENPEGYVAYSKATTVTGRLVHVNFGTKKDFENLKSPVNGSLVIARAGKITFAEKVANAQSYNALGVLIYMDQARFPIVNAQIPFFGHAHLGTGDPYTPGFPSFNHTQFPPSQSSGLPSIPVQTIPRAVAEKLFENMEGDCPSAWEIDPSCRLETSPNKNVKLTVNNVLKEIRIFNIFGVIKGFEEPDRYVVIGAQRDAWGPGAAKSSVGTALLLELARIFSDMVLKGGFKPSRSIVFASWSAGDFGAIGATEWLEGYLSSLHLKAFTYINLDKAILGTSNFKVSASPLLYSLLEKTMKDVKHPITGQSLYRDSNWINKVEKWSLDNAAFPFLAYSGIPAVSFCFCEDTDYPYLGTTMDLYENLNQKIPQLNKMARGAAEVAGQLIIKLTYDLELNLNYEMYNDKILSFVRDMNQFRTDLKEMGLNLQWLYSARGDFFRATSRLTTDYKNAERTNRFVMREINDRIMKVEHNFLSPYVSPRDSPFRHIFWGSGSHTLPALVEHLKLRQKNNSAFNETLLRNQLALATWTIQGAANALSGDIWDIDNEL
[1]
  koff: 0.00441 s⁻¹
[2]
  koff: 0.0126 s⁻¹
